Measurements: publication PMC9536601 (2022)

Target: human prothrombin (FII) (human, UniProt P00734 44-622, gamma-carboxylated glutamate residues in the Gla domain)
Experiment: SPR

B1: Ad1 hexon, on wild-type human adenovirus type 1 virions (natural protein)
chain: ATPSMMPQWSYMHISGQDASEYLSPGLVQFARATETYFSLNNKFRNPTVAPTHDVTTDRSQRLTLRFIPVDREDTAYSYKARFTLAVGDNRVLDMASTYFDIRGVLDRGPTFKPYSGTAYNALAPKGAPNSCEWEQEEPTQEMAEELEDEEEAEEEEAEEEAEAPQADQKVKKTHVYAQAPLAGEKITANGLQIVSDTQTEGNPVFADPTYQPEPQVGESQWNEAEATASGGRVLKKTTPMKPCYGSYARPTNKNGGQGILVANNQGALESKVEMQFFAPSGTAMNERNAVQPSIVLYSEDVNMETPDTHISYKPSKTDENSKAMLGQQAMPNRPNYIAFRDNFIGLMYYNSTGNMGVLAGQASQLNAVVDLQDRNTELSYQLLLDSIGDRTRYFSMWNQAVDSYDPDVRIIENHGTEDELPNYCFPLGGIGVTDTYQGIKSNGNGNPQNWTKNDDFAARNEIGVGNNFALEINLNANLWRNFLYSNIALYLPDKLKYTPTNVEISPNPNSYDYMNKRVVAPGLVDCYINLGARWSLDYMDNVNPFNHHRNAGLRYRSMLLGNGRYVPFHIQVPQKFFAIKNLLLLPGSYTYEWNFRKDVNMVLQSSLGNDLRVDGASIKFDSICLYATFFPMAHNTASTLEAMLRNDTNDQSFNDYLSAANMLYPIPANATNVPISIPSRNWAAFRGWAFTRLKTKETPSLGSGYDPYYTYSGSIPYLDGTFYLNHTFKKVAITFDSSVSWPGNDRLLTPNEFEIKRSVDGEGYNVAQCNMTKDWFLVQMLANYNIGYQGFYIPESYKDRMYSFFRNFQPMSRQVVDDTKYKDYQQVGILHQHNNSGFVGYLAPTMREGQAYPANFPYPLIGKTAVDSITQKKFLCDRTLWRIPFSSNFMSMGALTDLGQNLLYANSAHALDMTFEVDPMDEPTLLYVLFEVFDVVRVHQPHRGVIETVYLRTPFSAGNATT
- Kd: 5 nM
